The results in this text go back to patent US11402384B2 (Duke University, priority 2015, dated 2022).

The experiment in a line: Ratiometric fluorescence glucose titration of fluorescent conjugates. It is filed as binding. To be noted: tsGBP 13C affinity mutants, Acrylodan or Badan conjugates. In outline: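 Single-cysteine glucose-binding protein mutants labelled site-specifically with thiol-reactive environmentally sensitive fluorophores; emission spectra recorded during glucose titration to detect ligand-mediated intensity and spectral-shape changes for ratiometric read-out. Temperature- and ligand-dependent fluorescence landscapes acquired in 1K steps; binding fitted to single-site fractional saturation.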

The mark [1] stands for this setting: read-out: Glucose affinity ^appKd.
The mark [2] stands for this setting: read-out: Glucose affinity ^trueKd.

Like-named read-outs stand apart in the source and are kept apart here.

B1: W244Y A: tsGBP2.13C.W244Y (SEQ ID NO: 49) Acrylodan conjugate (conjugate)
chain: MKLEIFSWWAGDCGPALEALIRLYKQKYPGVEVINATVTGGAGVNAKAVLKTRMLGGDPPDTFQVHAGQELIGTWVVADRMEDLTSLFRQEGWLQAFPKGLIDLLSYKGGIWSVPVNIHRSNVMWYIPAKLKEWGVTPPKTWAEFLATAQTLKRKGLEAPLALGENWTQQHLWESVALATLGADGWNNLWSGKLKFTDPKAVAVWETFGKVLDAANKDAAGLSWQQAVDRVVQGKAAFNIMGDYAAGYMSTTLKLKPGTDFAWTPSPGTSGIFMMLSDSFGLPKGAKNRQNAINWLKLVGSKEGQDTFNPLKGSIAARLDSDPAKYNAYGQSAMKDWKSNRIVGSLVHGAVAPESFMSQFGTVMEIFLQSRNPQAAANAAQAIANQVGLGRGGSHHHHHH
modifications: Acrylodan conjugate; tsGBP2.13C.W244Y (13C, 244Y double substitution mutant with signal peptide replaced with M and a GGSHHHHHH at C-terminus)
For the molecule B1, the Kd reads like this: under setting [1], 5.6 mM; under setting [2], 7.8 mM.

B2: W244Y B: tsGBP2.13C.W244Y (SEQ ID NO: 49) Badan conjugate (conjugate)
chain: MKLEIFSWWAGDCGPALEALIRLYKQKYPGVEVINATVTGGAGVNAKAVLKTRMLGGDPPDTFQVHAGQELIGTWVVADRMEDLTSLFRQEGWLQAFPKGLIDLLSYKGGIWSVPVNIHRSNVMWYIPAKLKEWGVTPPKTWAEFLATAQTLKRKGLEAPLALGENWTQQHLWESVALATLGADGWNNLWSGKLKFTDPKAVAVWETFGKVLDAANKDAAGLSWQQAVDRVVQGKAAFNIMGDYAAGYMSTTLKLKPGTDFAWTPSPGTSGIFMMLSDSFGLPKGAKNRQNAINWLKLVGSKEGQDTFNPLKGSIAARLDSDPAKYNAYGQSAMKDWKSNRIVGSLVHGAVAPESFMSQFGTVMEIFLQSRNPQAAANAAQAIANQVGLGRGGSHHHHHH
modifications: Badan conjugate; tsGBP2.13C.W244Y (13C, 244Y double substitution mutant with signal peptide replaced with M and a GGSHHHHHH at C-terminus)
With B2, the Kd worked out at 4.1 mM under setting [1] and 3.8 mM under setting [2].

B3: D278S B: tsGBP2.13C.D278S (SEQ ID NO: 51) Badan conjugate (conjugate)
chain: MKLEIFSWWAGDCGPALEALIRLYKQKYPGVEVINATVTGGAGVNAKAVLKTRMLGGDPPDTFQVHAGQELIGTWVVADRMEDLTSLFRQEGWLQAFPKGLIDLLSYKGGIWSVPVNIHRSNVMWYIPAKLKEWGVTPPKTWAEFLATAQTLKRKGLEAPLALGENWTQQHLWESVALATLGADGWNNLWSGKLKFTDPKAVAVWETFGKVLDAANKDAAGLSWQQAVDRVVQGKAAFNIMGDWAAGYMSTTLKLKPGTDFAWTPSPGTSGIFMMLSSSFGLPKGAKNRQNAINWLKLVGSKEGQDTFNPLKGSIAARLDSDPAKYNAYGQSAMKDWKSNRIVGSLVHGAVAPESFMSQFGTVMEIFLQSRNPQAAANAAQAIANQVGLGRGGSHHHHHH
modifications: Badan conjugate; tsGBP2.13C.D278S (13C, 278S double substitution mutant with signal peptide replaced with M and a GGSHHHHHH at C-terminus)
On to B3, for which the “Change (fluorescence response to glucose)” value (shortened to “Change”) was “m/d”. Also, under setting [1], the Kd was 81 mM. The Kd under setting [2] was found to be 91 mM.

B4: D278N A: tsGBP2.13C.D278N (SEQ ID NO: 50) Acrylodan conjugate (conjugate)
chain: MKLEIFSWWAGDCGPALEALIRLYKQKYPGVEVINATVTGGAGVNAKAVLKTRMLGGDPPDTFQVHAGQELIGTWVVADRMEDLTSLFRQEGWLQAFPKGLIDLLSYKGGIWSVPVNIHRSNVMWYIPAKLKEWGVTPPKTWAEFLATAQTLKRKGLEAPLALGENWTQQHLWESVALATLGADGWNNLWSGKLKFTDPKAVAVWETFGKVLDAANKDAAGLSWQQAVDRVVQGKAAFNIMGDWAAGYMSTTLKLKPGTDFAWTPSPGTSGIFMMLSNSFGLPKGAKNRQNAINWLKLVGSKEGQDTFNPLKGSIAARLDSDPAKYNAYGQSAMKDWKSNRIVGSLVHGAVAPESFMSQFGTVMEIFLQSRNPQAAANAAQAIANQVGLGRGGSHHHHHH
modifications: Acrylodan conjugate; tsGBP2.13C.D278N (13C, 278N double substitution mutant with signal peptide replaced with M and a GGSHHHHHH at C-terminus)
Turning to B4, the Kd reads like this: under setting [1], roughly 100 mM; under setting [2], roughly 100 mM.

B5: D278S A: tsGBP2.13C.D278S (SEQ ID NO: 51) Acrylodan conjugate (conjugate)
chain: MKLEIFSWWAGDCGPALEALIRLYKQKYPGVEVINATVTGGAGVNAKAVLKTRMLGGDPPDTFQVHAGQELIGTWVVADRMEDLTSLFRQEGWLQAFPKGLIDLLSYKGGIWSVPVNIHRSNVMWYIPAKLKEWGVTPPKTWAEFLATAQTLKRKGLEAPLALGENWTQQHLWESVALATLGADGWNNLWSGKLKFTDPKAVAVWETFGKVLDAANKDAAGLSWQQAVDRVVQGKAAFNIMGDWAAGYMSTTLKLKPGTDFAWTPSPGTSGIFMMLSSSFGLPKGAKNRQNAINWLKLVGSKEGQDTFNPLKGSIAARLDSDPAKYNAYGQSAMKDWKSNRIVGSLVHGAVAPESFMSQFGTVMEIFLQSRNPQAAANAAQAIANQVGLGRGGSHHHHHH
modifications: Acrylodan conjugate; tsGBP2.13C.D278S (13C, 278S double substitution mutant with signal peptide replaced with M and a GGSHHHHHH at C-terminus)
Consider B5, for which the “Change” value is listed as “m/d”.

B6: D278N B: tsGBP2.13C.D278N (SEQ ID NO: 50) Badan conjugate (conjugate)
chain: MKLEIFSWWAGDCGPALEALIRLYKQKYPGVEVINATVTGGAGVNAKAVLKTRMLGGDPPDTFQVHAGQELIGTWVVADRMEDLTSLFRQEGWLQAFPKGLIDLLSYKGGIWSVPVNIHRSNVMWYIPAKLKEWGVTPPKTWAEFLATAQTLKRKGLEAPLALGENWTQQHLWESVALATLGADGWNNLWSGKLKFTDPKAVAVWETFGKVLDAANKDAAGLSWQQAVDRVVQGKAAFNIMGDWAAGYMSTTLKLKPGTDFAWTPSPGTSGIFMMLSNSFGLPKGAKNRQNAINWLKLVGSKEGQDTFNPLKGSIAARLDSDPAKYNAYGQSAMKDWKSNRIVGSLVHGAVAPESFMSQFGTVMEIFLQSRNPQAAANAAQAIANQVGLGRGGSHHHHHH
modifications: Badan conjugate; tsGBP2.13C.D278N (13C, 278N double substitution mutant with signal peptide replaced with M and a GGSHHHHHH at C-terminus)
On to B6, for which the “Change” value is recorded as “m/d”. In addition, the Kd under setting [1] amounted to 99 mM.
